What was measured:
[1] = target: T1, mDia2N (mDia2 residues 150-533) (UniProt Q9Z207 150-533); experiment: SPR
T1 sequence (looked up): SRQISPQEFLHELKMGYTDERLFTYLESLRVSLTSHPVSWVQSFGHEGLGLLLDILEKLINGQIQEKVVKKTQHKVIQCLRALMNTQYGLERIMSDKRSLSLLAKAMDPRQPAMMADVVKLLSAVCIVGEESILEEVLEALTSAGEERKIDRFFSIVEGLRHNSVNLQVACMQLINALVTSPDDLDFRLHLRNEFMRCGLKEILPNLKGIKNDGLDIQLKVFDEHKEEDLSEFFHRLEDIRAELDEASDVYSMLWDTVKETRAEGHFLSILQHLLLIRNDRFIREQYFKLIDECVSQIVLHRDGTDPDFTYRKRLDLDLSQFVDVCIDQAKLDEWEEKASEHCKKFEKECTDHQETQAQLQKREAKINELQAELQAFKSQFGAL

[2] = target: T2, mDia3N (mDia3 residues 166-542) (UniProt O70566 166-542); experiment: SPR
T2 sequence (looked up): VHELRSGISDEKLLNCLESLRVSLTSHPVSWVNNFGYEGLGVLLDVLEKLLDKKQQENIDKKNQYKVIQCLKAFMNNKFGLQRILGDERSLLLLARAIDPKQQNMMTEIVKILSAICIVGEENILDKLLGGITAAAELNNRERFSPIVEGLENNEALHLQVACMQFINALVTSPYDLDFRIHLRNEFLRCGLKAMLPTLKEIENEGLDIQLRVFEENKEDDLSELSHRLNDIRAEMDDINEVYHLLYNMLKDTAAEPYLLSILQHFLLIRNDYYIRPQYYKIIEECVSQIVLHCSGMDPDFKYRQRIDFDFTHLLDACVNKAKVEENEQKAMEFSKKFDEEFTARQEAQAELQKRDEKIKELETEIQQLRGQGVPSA

Kd [1]: 236 nM
Kd [2]: 1020 nM
B1: GST-anillin (1-91) (domain or fragment, human, UniProt Q9NQW6-2 1-91, looked up)
chain: MDPFTEKLLERTRARRENLQRKMAERPTAAPRSMTHAKRARQPLSEASNQQPLSGGEEKSCTKPSPSKKRCSDNTEVEVSNLENKQPVEST

Source: article PMC2938385 (Molecular Biology of the Cell, 2010)
